Laboratory results reported in US20110245167A1 (UNIVERSITY OF TOLEDO, published 2011).

Target: Recombinant human Src expressed in Sf9 insect cells (purified recombinant full-length Src from Upstate … (human, UniProt P12931 2-536))
Assay: cell-based or functional assay

B1: pNaKtide (HIV-Tat-NaKtide) (peptide)
peptide: not shown
IC50 of Src inhibition (in vitro kinase assay): ~5 nM
